Laboratory results reported in patent US20140223606, “COMPOSITIONS AND METHODS COMPRISING SEQUENCES HAVING MEGANUCLEASE ACTIVITY” (PIONEER HI BRED INTERNATIONAL INC, published 2014).
Positions count from the first letter of the chain named.

Experiments:
Assay in all cases: cell_activity; yeast 37 C; 30 C: 0.5
Conditions in all cases: tags: NLS, 6xHis
ZM6.22v2(J7) = molecular target: T1, ZM6.22v2(J7) (artificial)
T1 chain: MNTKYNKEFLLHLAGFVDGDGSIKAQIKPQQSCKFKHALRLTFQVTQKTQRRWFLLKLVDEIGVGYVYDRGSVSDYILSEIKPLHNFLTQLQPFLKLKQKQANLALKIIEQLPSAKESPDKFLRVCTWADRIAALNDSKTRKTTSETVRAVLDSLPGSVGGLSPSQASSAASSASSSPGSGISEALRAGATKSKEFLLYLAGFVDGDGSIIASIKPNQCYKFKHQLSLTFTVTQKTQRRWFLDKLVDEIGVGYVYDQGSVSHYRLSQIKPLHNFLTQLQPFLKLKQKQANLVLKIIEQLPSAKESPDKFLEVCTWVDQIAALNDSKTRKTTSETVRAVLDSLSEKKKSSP
Description: (§1) A 3 mL culture of selective media (MP Biomedical) was inoculated with a single colony of the yeast screening strain and grown at 30° C. overnight. On the following day, a 50 ml YPD culture (MP Biomedical) was started with 2 ml of the overnight culture and grown at 30° C. overnight. On the following day, the cells were harvested by centrifugation at 4000 rpm. The cells were resuspended in 100 ml ice cold water and centrifuged again. The cells were then washed in 1.2 M sorbitol, followed by treatment with 2 ml of 10 mM Tris pH 8.0, 1 mM EDTA, 100 mM Lithium acetate, 10 mM DTT, 0.6M sorbitol for 30 minutes at 30° C. with shaking. The cells were recovered by centrifugation, washed in 40 ml 1.2M sorbitol and finally resuspended in 250 microliters of 1.2M sorbitol. 50 microliter aliquots were transferred to test tubes on ice. Up to 5 microliters of DNA (100-500 nanograms) were added. The suspension was transferred to a 0.2 cm electroporation cuvette, on ice. Electroporation was performed with a pulse charge at 1.5 kV, 200 ohms, 25 microF (pulse time of 5 milliseconds). 1 mL YPD media (MP Biomedical) was added and the cells were allowed to recover at 30° C. for 1-2 hr. The cells were centrifuged, resuspended in 100 uL 1M sorbitol and plated on selective media lacking leucine and containing 2% galactose. The resulting yeast colonies were incubated at various temperatures ranging from 22 to 37 degrees Celsius for 7-10 days. I-CreI and meganucleases derived from it have maximal activity at or above 37 degrees Celsius. Screening was performed at a range of temperatures from 22 to 37 degrees in order to observe increases in activity at lower temperatures which are relevant to certain biological systems (eg. plant cells, plant cell cultures, etc). At that time the red/white sectoring phenotype, indicative of meganuclease activity was observed. Colonies with increased white sectoring over the parental meganuclease (indicating colonies expressing a meganuclease with increased meganuclease activity), also referred to as “hits” and sometimes completely white, were isolated for further analysis.
(§2) A total of 13 ZM6.22v2 variants with increased activity were confirmed in the yeast system (as described in Example 6). Increased activity was observed across a range of temperatures: 28 degrees Celsius, 30 degrees Celsius and 37 degrees Celsius, as shown in Table 16.

ZM6.22v2(J4) = molecular target: T2, ZM6.22v2(J4) (artificial)
T2 chain: T1 chain with L56D, A105V, R124E, A129V, R131Q, Q237R, Q318R
Description: as §1, §2

ZM6.22v2(I8) = molecular target: T3, ZM6.22v2(I8) (artificial)
T3 chain: T1 chain with L56D, A105V, R131Q, E311R
Description: as §1, §2

ZM6.22v2(J5) = molecular target: T4, ZM6.22v2(J5) (artificial)
T4 chain: T1 chain with L56D, A129V, R131Q, D153L, E311R
Description: as §1, §2

ZM6.22v2(J3) = molecular target: T5, ZM6.22v2(J3) (artificial)
T5 chain: T1 chain with H12Y, Q50R, A105V, R124E, A129V, Q237R, E311R, V316A, Q318R
Description: as §1, §2

B1: ZM6.22v2 recognition site (dsDNA)
DNA 1: ATTGCTCTCTCACATACTTTTA
DNA 2: TAAAAGTATGTGAGAGAGCAAT
activity (ZM6.22v2(J7)): 3 score 0-4
activity (ZM6.22v2(J4)): 3.5 score 0-4
activity (ZM6.22v2(I8)): 2.5 score 0-4
activity (ZM6.22v2(J5)): 4 score 0-4
activity (ZM6.22v2(J3)): 3 score 0-4
